From article PMC4231788

Experiments:
[1] = biological target: full-length soluble trimeric gp140 immunogen from the clade C TV1 strain (HIV-1 (clade C, strain TV1)); assay: cryo-EM 2D comparison of trimers; 2D comparison of gp140ΔV2TV1 with full length gp140 constructs; trimeric diameters measured
[2] = biological target: full-length soluble trimeric gp140 immunogen from the clade C TV1 strain (HIV-1 (clade C, strain TV1)); assay: cryo-EM structure; unliganded gp140 in vitreous ice, 0.1 mg/ml, Tris buffer 20 mM pH 7.9, 50 mM NaCl; single particle reconstruction, ~21 Å at 0.5 FSC
[3] = biological target: gp140 of clade C strain CAP45.2.00.G3 (HIV-1 (clade C, strain CAP45.2.00.G3)); assay: cryo-EM 2D comparison of trimers; 2D comparison of gp140ΔV2TV1 with full length gp140 constructs; trimeric diameters measured
[4] = biological target: gp140 of clade C strain CAP239.2.00.G3J (HIV-1 (clade C, strain CAP239.2.00.G3J)); assay: as above
[5] = biological target: gp140 of clade C strain Du156.1 (HIV-1 (clade C, strain Du156.1)); assay: as above
[6] = biological target: gp140ΔV2TV1, clade C gp140 trimer with a 30-residue truncation in the V2 loop (HIV-1 (clade C, strain TV1)); assay: as above

## full-length soluble trimeric gp140 immunogen from the clade C TV1 strain (natural protein)
[1]
  stoichiometry N: 3
[2]
  stoichiometry N: 3

## gp140 of clade C strain CAP45.2.00.G3 (natural protein)
[3]
  stoichiometry N: 3

## gp140 of clade C strain CAP239.2.00.G3J (natural protein)
[4]
  stoichiometry N: 3

## gp140 of clade C strain Du156.1 (natural protein)
[5]
  stoichiometry N: 3

## gp140ΔV2TV1, clade C gp140 trimer with a 30-residue truncation in the V2 loop (natural protein)
[6]
  stoichiometry N: 3
